In general, EC50 refers to the concentration at which the effect is half-maximal. Read a low EC50 as an effect from little substance.

In patent US20170166631A1 one finds EC50 data, which are given here for four molecules.

The target of assay [1] is T1, HD21 (huntingtin exon 1 protein with 21 polyQ repeats after cleavage of the GST tag; aggregation reaction) (human), P42858.
T1 chain: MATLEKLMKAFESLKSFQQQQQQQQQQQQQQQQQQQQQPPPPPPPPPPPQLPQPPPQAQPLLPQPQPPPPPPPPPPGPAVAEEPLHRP
Put plainly: ELISA. The following applies: chains VH:VL; remark: other sources report otherwise.

The target of assay [2] is all four species (aggregated HD49, aggregated HD21, soluble GST-HD49 and GST-HD21). Put plainly: direct ELISA, antigen coated at 5 ug/ml. A general note: An ELISA detects its analyte on a solid surface through an enzyme-linked reagent.

B1: NI-302.8M1 (protein)
chain 1: EVQLVQSGAEVKKPGASVKVSCKASGYTFTIYYMHWVRQAPGQGLEWMGGISPSGAHTMYAQNFQGRVTVTRDTSTSTVYMELSSLRSEDTAVYYCARGSTVTNYRPFDYWGQGTLVTVSS
chain 2: DIQMTQSPSSLSASVGDRVTITCRASQDISNYLAWYQQKPGKVPKLLIFAASTLQSGVPSRFGGSGSGTDFTLTISSLQPEDVATYYCQNYNSGPPPFGPGTKVDIK
The molecule B1 yielded an EC50 in assay [1] of 0.002 nM.

B2: NI-302.15F9 (antibody, human IgG1, V domains shown)
VH: EVQLVESGGGLVTPGGSLRLSCEASGFLFKNSSMNWVRQTPGKGLEWVSSIDTSATNYKYYADSVKGRFTISRDDATNSLYLQMNSLRADDTATYYCARGYYTPRDFDYWGQGTLVTVSS
VL: DVVMTQSPQTLSVSLGQAASISCRSSQSLLYRDNNTYLNWFHQRPGQSPRRLIYRASDRDSGVPDRFSGGGSGTDFTLKISGVEAEDVGTYYCMQGTHWPRTFGQGTKVEIK
Take B2: the EC50 in assay [2] fell in the range of 5 to 35 nM.

B3: NI-302.4A6 (protein)
chain 1: EVQLVESGGGLVQPGGSLRLSCAASGFTFSAYAMSWVRQAPGKGLEWVSTISGSGGSTYYADSVKGRFSISRDNSKNTLYLQMNSLRAEDTAVYFCAKVTTELYGANSYYYYMDVWGKGTTVTVSS
chain 2: EIVLTQSPGTLSLSPGERATLSCRASQSVVSRYLAWYQQKPGQAPRLLIYGASSRATGIPDRFSGSGSGTDFTLTISRLEPEDFAMYYCQLYGNSQTFGQGTKVEIK
In turn, B3 showed an EC50 in assay [1] of 3 nM.

B4: NI-302.12H2 (protein)
chain 1: EVQLVQSGGGLVQPGGSLRLSCEASGFTFSNYAMGWVRQAPGKGLEWVSVISGTGGSTYYADSVKGRFTISRDNSMNTLYLQMNSPRADDTAVYYCAKDLRKISGPLYYYGMDVWGQGTTVTVSS
chain 2: EIVLTQSPGTLSLSPGERATLSCRASQSVSSGYLAWYQQKPGQAPRLLIYGASTRATGIPDRFSGSGSGTDFTLTISRLEPEDFAVYYCQHYGASSYTFGQGTKLEIK
In assay [1], B4 showed an EC50 of 0.05 nM.
